B1: Archaerhodopsin 3 (protein)
chain: MDPIALQAGYDLLGDGRPETLWLGIGTLLMLIGTFYFLVRGWGVTDKDAREYYAVTILVPGIASAAYLSMFFGIGLTEVTVGGEMLDIYYARYADWLFTTPLLLLDLALLAKVDRVTIGTLVGVDALMIVTGLIGALSHTAIARYSWWLFSTICMIVVLYFLATSLRSAAKERGPEVASTFNTLTALVLVLWTAYPILWIIGTEGAGVVGLGIETLLFMVLDVTAKVGFGFILLRSRAILGDTEAPEPSAGADVSAAD
modifications: Halorubrum sodomense
notes: Microbial rhodopsin from Halorubrum sodomense, light-driven proton pump used as fluorescent voltage indicator; experiments used an Arch-eGFP fusion
B2: Arch D95N: Archaerhodopsin 3 with aspartic acid 95 mutated to asparagine; non-pumping voltage indicator (protein, UniProt P96787 7-258, looked up, variant D95N)
Archaerhodopsin-3: QAGYDLLGDGRPETLWLGIGTLLMLIGTFYFLVRGWGVTDKDAREYYAVTILVPGIASAAYLSMFFGIGLTEVTVGGEMLDIYYARYANWLFTTPLLLLDLALLAKVDRVTIGTLVGVDALMIVTGLIGALSHTAIARYSWWLFSTICMIVVLYFLATSLRSAAKERGPEVASTFNTLTALVLVLWTAYPILWIIGTEGAGVVGLGIETLLFMVLDVTAKVGFGFILLRSRAILGDTEAPEPSAGADVSAAD

Legend:
[1] = pKa of the Schiff base from absorption spectra versus pH; format: physicochemical; details: singular value decomposition on absorption spectra, pH 6-11
Procedure: FIG. 8C illustrates absorption spectra recorded on purified protein between about pH 6 and about pH 11. Singular Value Decomposition of absorption spectra between 400-750 nm was used to calculate the fraction of the SB in the protonated state as a function of pH. The result was fit to a Hill function to determine the pKa of the SB.
(§1) (2) Spectroscopic characterization of Arch WT and D95N. The absorption spectra of fractionated E. coli membranes containing Arch WT and D95N were determined using an Ocean Optics USB4000 spectrometer with a DT-MINI-2-GS light source (FIG. 8). The peak extinction coefficients of microbial rhodopsins vary across rhodopsin types from 48,000 to 63,000 M^−1 cm^−1. Due to the high homology between Arch and bacteriorhodopsin (BR), the BR extinction coefficient, 63,000 M^−1 cm^−1, was used for Arch. […] For Arch WT, 633 nm was in the tail of the absorption while for Arch D95N 633 nm lay halfway down the shoulder. The relative extinction coefficients of Arch WT and D95N at 633 nm was independent of the choice to use BR as the reference for the peak extinction coefficient. Absorption spectra for Arch WT and D95N were measured as a function of pH between pH 6 and 11.

[2] = Spectroscopic characterization of Arch WT and D95N (absorption, emission, extinction, quantum yield); format: physicochemical; details: for λmax em: Excitation at λ=532 nm; for ε633: assuming same peak extinction coefficient as Bacteriorhodopsin, 63,000 M^−1 cm^−1; for QY (fluorescence quantum yield): comparison to Alexa 647, excitation at λ=633 nm; for λmax abs: neutral pH
Procedure: Arch and its D95N mutant were expressed in E. coli. Briefly, E. coli (strain BL21, pet28b plasmid) was grown in 1 L of LB with 100 micrograms/mL kanamycin, to an O.D 600 of 0.4 at 37° C. All-trans retinal (5 micromolar) and inducer (IPTG 0.5 mM) were added and cells were grown for an additional 3.5 hours in the dark. Cells were harvested by centrifugation and resuspended in 50 mM Tris, 2 mM MgCl2 at pH 7.3 and lysed with a tip sonicator for 5 minutes. The lysate was centrifuged and the pellet was resuspended in PBS supplemented with 1.5% dodecyl maltoside (DM). The mixture was homogenized with a glass/Teflon Potter Elvehjem homogenizer and centrifuged again. The solubilized protein in the supernatant was used for experiments.
as §1
The fluorescence emission spectra of Arch WT and D95N were determined using illumination with a 100 mW, 532 nm laser (Dragon Lasers, 532GLM100) or a 25 mW, 633 nm HeNe laser (Spectra-Physics) (FIG. 8). Scattered laser light was blocked with a 532 nm Raman notch filter (Omega Optical, XR03) or a 710/100 emission filter (Chroma), and fluorescence was collected perpendicular to the illumination with a 1000 micron fiber, which passed the light to an Ocean Optics QE65000 spectrometer. Spectra were integrated for 2 seconds. Arch WT and D95N both had emission maxima at 687 nm.
The fluorescence quantum yields of Arch WT and D95N were determined by comparing the integrated emission intensity to emission of a sample of the dye Alexa 647. Briefly, the concentrations of micromolar solutions of dye and protein were determined using a visible absorption spectrum. The extinction coefficients of 270,000 M^−1cm^−1 for Alexa 647 and 63,000 M^−1 cm^−1 for Arch WT and D95N were used, assuming that these microbial rhodopsins have the same extinction coefficient as bacteriorhodopsin. […] The fluorescence emission spectra of dye and protein samples were measured with 633 nm excitation. The quantum yield was then determined by the formula
where Fl is the integrated fluorescence from 660 to 760 nm, epsilon (∈) is the extinction coefficient at 633 nm and c is the concentration.

Molecule	pKa of SB [1]	λmax em [2]	λmax em ([2]; listed as Arch)	ε633 [2]	QY (fluorescence quantum yield) [2]	QY (fluorescence quantum yield) ([2]; listed as Arch)	λmax abs [2]	λmax abs ([2]; listed as Arch^D95N)	λmax abs ([2]; listed as D95N)
B1	10.1	687 nm	≈ 687 nm	6,300 M^−1 cm^−1	9 × 10^−4	about 9×10^−4	558 nm		
B2	8.9	687 nm		37,500 M^−1 cm^−1	4 × 10^−4		585 nm	about 585 nm	585 nm
